Data set [1] deals with EcoRI restriction endonuclease. To be noted: highest Ka measured in this report; optical-trap unzipping (UFAPA); 10 mM HEPES pH 7.6, 1 mM EDTA, no Mg2+, 106-262 mM Na+, 23 C; Ka decreases with Na+ ….
Data set [2] addresses T1, BsoBI restriction endonuclease (UniProt P70985 P70985:2-323).
T1 sequence: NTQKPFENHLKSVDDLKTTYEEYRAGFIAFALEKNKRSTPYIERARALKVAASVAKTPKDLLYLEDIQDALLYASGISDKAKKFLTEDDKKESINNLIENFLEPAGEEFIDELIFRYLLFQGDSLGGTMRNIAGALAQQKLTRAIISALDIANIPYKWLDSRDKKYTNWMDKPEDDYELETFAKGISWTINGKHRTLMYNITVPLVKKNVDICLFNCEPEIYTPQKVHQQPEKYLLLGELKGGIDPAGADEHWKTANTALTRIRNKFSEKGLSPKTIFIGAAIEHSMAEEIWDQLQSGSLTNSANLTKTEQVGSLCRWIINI
As to the kind of experiment: optical-trap unzipping, dynamic force spectroscopy: f_beta 4.36 +/- 0.53 pN, ln(toff in s) 7.6 +/- 1.1, N=51; BsoBI 0.7 nM, 50 mM Na phosphate pH 7.0, 50 mM NaCl, 10 mM EDTA, no Mg2+, 23 C. Particulars: tags: New England BioLabs, commercial grade, used without further purification; chain copies: 2 (stated, 72 kD dimer); label: digoxigenin and biotin (via anchoring segment and insert duplex). The procedure: (§1) Unzipping Buffer Conditions. Experiments with BsoBI and XhoI were performed at room temperature (23° C.) in a buffer containing 50 mM sodium phosphate buffer pH 7.0, 50 mM NaCl, 0.02% Tween-20, 10 mM EDTA. To facilitate better comparisons of future EcoRI results with previously reported results, mapping and equilibrium constants studies of EcoRI were performed at room temperature (23° C.) in a buffer containing 10 mM HEPES, pH 7.6, 1 mM EDTA, 50 μM DTT, 100 μg/ml BSA, 500 μg/ml Blotting Grade Blocker (Bio-Rad) and NaCl added to produce total Na+concentrations of 106 to 262 mM. […] The Hepes buffer is similar to the buffer used by Ha et al., “Role of the Hydrophobic Effect in Stability of Site-Specific Protein-DNA Complexes,” J. Mol. Biol. 209:801-816 (1989), the entire disclosure of which is hereby incorporated by reference in its entirety, for temperature dependence studies of EcoRI binding to its site on pBR322. Because of the tendency for EcoRI to aggregate at lower ionic strengths (Jen-Jacobson et al., “Coordinate Ion Pair Formation Between EcoRI Endonuclease and DNA,” J. Biol. Chem. 258:14638-14646 (1983), the entire disclosure of which is hereby incorporated by reference in its entirety), the EcoRI mapping data were taken at 131 mM total Na+ concentration. […]

The target of data set [3] is T1, BsoBI restriction endonuclease. Nature of the data set: optical-trap unzipping, dynamic force spectroscopy: f_beta 4.04 +/- 0.14 pN, ln(toff in s) 4.98 +/- 0.27, N=243; BsoBI 0.7 nM, 50 mM Na phosphate pH 7.0, 50 mM. To be noted: tags: New England BioLabs, commercial grade, used without further purification; chain copies: 2 (stated, 72 kD dimer); label: digoxigenin and biotin (via anchoring segment and insert duplex). The procedure: as §1

In turn, “pBR322 EarI large fragment unzipping segment with single EcoRI site” came in with a Ka in data set [1] of 1e+11 M⁻¹.

B1: beta site (BsoBI/XhoI) (dsDNA)
DNA 1: AAACTCGAGAGA
DNA 2: TCTCTCGAGTTT
As to B1, the binding result in data set [2] is on record as “binds”.

B2: BsoBI alpha site (dsDNA)
DNA 1: TTCCTCGGGAAT
DNA 2: ATTCCCGAGGAA
Regarding B2, the binding result in data set [3] is “binds”.

The values are drawn from patent publication US20030108935, “Probing binding interactions between molecules and nucleic acids by unzipping a nucleic acid molecule double helix” (published 2003).
